{"source": "paper PMC3796546", "binders": {"B1": {"name": "N-terminal 3xHA-tagged wild-type Irc20, Q06554 C1239A (protein)", "chain": "MSAVGALLAREYNVTAEKCDFFLENGSFDSVIAALPALNQEQETVTQKVSKNGKELINVASVNIEIPERISLSNNGRQLFKFIVDIEILPCENDNEATLVVSSDSVSLFQIGFKMENNSKIAVDKQLPLILDICAHKNQERALRNQLENRKSLERKPSRKRRKKNSNVNDPEKLLKSRIHELSLSYKDFECSPVVFRYNDSSLTWVLSFNLKLKFLNNKFNRFSVEANQILDLTFSNRDENEFERYHKHSHIHSNFIQKQFISQILEYSKDRLSKIKPFLPQSIPDLKVNLLPFQRESVEWMLIKEGHGNSLSDTPTVIDEVGLIDFMNEYYAYGYELIARSPDEVGPSLLWNKLTGYILTTEDAAHLYNQYRKERLSGDYPVCAKGVLAEEMGLGKTIEILSLILLNRRKLKDSEATFIDDENRTITKTKTTLIICPNAILKQWLEEIELHANSLKWYTYRGYNEIMKDCKTVDEAVQQLCQYDIIVTSYNIIATEVHHAEFNRSIRSRRLKSPKYDYSSPLALMQFYRIILDEVQMLRSSSTYSAKCTSLLHRIHTWGVSGTPIQNIYNFRMIMSYLKLHPFCDEVDFIRTLQEEIKLRNEAKDYTSNDFVCQLKGVRFSIKDCMNIFYRYDLCIRHSKANVASQIHIPRQHNFIIPLEFAPIEWDNYLNLWNNFLELSGYNSDGSGSPRVSNAFLNEWLSRLRYICCHALFPEILSTRQKRLHGHLSRISNIDDILISMRMDAFDSLIGYYRERFHLSIKQAQYELEISNTPAKALESFIKIRDDLMIHIRQKFNVEDPFDKSLNLSEDEDEHMDERFGEKETSSGDESDREINGAKNHDNHNNDGMLSNHLKKKGLRAMMNLLHDCYFFLGSVYYNLGTRKLEEADDKHRKEKTEEVVYSDVFPKNELEEIEENRLLEQENYANAEILRKSILSSEARKVDMTIKMARTKFAPMTSNIPLRLINIEFDHKNDYSSNLAVSRCFKSLSKLIEGLNEQTKNFNELLDELLIIIYEPVHRTEDDDSTNKIIGNEEYSTSIDSQDKIFSLLGCLEIILQNRDNILTSESEVKIPKHLVPEGSIISKYQKQLLNSLRLISGTPLRTVFDELKNSRIVRRISSSNESESTIQNFEDYLLQYEVESKSLFKYNKQVRESLKILGSIYNAKTEYYSQLQRISDSLVSLHSLSAPQLSHLIRTINKSLGGTLDAKINNIESRLIYLKNLSRLKDTLNDNQILSASICLGEVEIGAIIKCGHYFCKSCILTWLRAHSKCPICKGFCSISEVYNFKFKNSTEKREKEIQEPRREGADSSQDNSNENSIISNMSEVEKLFGNKYEQFHQINEVHQIHIKESFGAKIDFVIKLISYLRLKSEQENADPPQVILYSQKTEYLKVIGKVLKLYHIEHLACLSNTANVGETINNFKRQPSVTCLLLNVKTLGAGLNLINAKHIFLLDPILNNSDELQAMGRNNRIGQDEETFVWNFMIRNTVEENILRYKCILEERKRKEKSKKGDKYDEAQDETDNEESDDAKFEISVVDQEVSNEHLWNCFFHGSD"}}, "target": "T1, Smt3 (SUMO), endogenous, Q12306", "T1 chain": "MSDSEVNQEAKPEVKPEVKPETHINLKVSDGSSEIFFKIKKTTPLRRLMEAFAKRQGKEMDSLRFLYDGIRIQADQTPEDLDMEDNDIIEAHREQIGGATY", "test": "co-IP with mass spectrometry", "conditions": "chain shown with the change, cross-linked in vivo with formaldehyde, p value 0.04637"}
{"binder": "B1", "values": [{"measurement": "ratio to parent", "result": "> 11"}, {"measurement": "other: sum", "setting": "parent: 0", "result": 11}]}
